Reference: patent US20240076386A1 (Pfizer, published 2024)

T1: human E-selectin, cell-surface expressed (human, UniProt P16581 22-610)
T1 construct: also called CHO-human E-selectin cells; human CHO-E
T1 sequence: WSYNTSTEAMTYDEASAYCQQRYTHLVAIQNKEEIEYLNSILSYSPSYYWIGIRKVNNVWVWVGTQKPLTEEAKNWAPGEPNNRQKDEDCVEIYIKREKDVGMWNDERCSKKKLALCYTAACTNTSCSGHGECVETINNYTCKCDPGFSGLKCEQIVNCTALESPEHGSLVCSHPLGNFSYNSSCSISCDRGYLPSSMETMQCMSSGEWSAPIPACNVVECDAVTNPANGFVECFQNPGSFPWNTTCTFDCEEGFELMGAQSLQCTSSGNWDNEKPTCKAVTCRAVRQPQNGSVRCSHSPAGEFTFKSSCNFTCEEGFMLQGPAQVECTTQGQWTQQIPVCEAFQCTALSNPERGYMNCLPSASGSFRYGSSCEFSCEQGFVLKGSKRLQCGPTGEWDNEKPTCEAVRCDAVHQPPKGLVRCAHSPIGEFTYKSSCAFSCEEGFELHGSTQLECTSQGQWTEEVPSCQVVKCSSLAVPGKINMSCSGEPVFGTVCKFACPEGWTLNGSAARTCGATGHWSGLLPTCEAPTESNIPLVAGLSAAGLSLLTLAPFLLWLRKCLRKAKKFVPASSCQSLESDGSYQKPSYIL

T2: soluble recombinant human P-selectin (human, UniProt P16109 42-771, limits assumed)
T2 sequence (looked up): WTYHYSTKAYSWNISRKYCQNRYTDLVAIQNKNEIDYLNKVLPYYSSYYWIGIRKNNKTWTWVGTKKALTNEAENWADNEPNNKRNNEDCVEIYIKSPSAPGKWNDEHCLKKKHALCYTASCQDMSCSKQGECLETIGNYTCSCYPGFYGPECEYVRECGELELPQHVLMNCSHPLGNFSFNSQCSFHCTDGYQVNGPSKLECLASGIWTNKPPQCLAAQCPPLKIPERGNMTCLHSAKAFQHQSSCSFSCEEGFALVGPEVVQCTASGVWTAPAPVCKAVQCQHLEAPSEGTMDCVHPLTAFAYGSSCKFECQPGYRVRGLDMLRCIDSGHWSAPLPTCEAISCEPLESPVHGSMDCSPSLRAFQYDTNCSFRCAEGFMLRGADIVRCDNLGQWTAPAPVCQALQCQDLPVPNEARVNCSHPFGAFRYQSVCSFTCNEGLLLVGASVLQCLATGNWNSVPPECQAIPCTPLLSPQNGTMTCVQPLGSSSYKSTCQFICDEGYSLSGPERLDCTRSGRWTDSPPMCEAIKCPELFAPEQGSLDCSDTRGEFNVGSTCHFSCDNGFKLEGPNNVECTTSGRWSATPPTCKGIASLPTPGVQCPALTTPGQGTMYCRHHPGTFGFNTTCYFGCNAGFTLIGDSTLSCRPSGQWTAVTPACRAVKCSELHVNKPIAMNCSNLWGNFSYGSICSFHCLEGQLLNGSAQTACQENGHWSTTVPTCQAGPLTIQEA


Experiments:
[1] = molecular target: T1, human E-selectin, cell-surface expressed; assay: flow cytometry, CHO cells
Method: CHO cell lines expressing human E-selectin were detached from confluent flasks using enzyme-free Cell Dissociation Buffer (GIBCO, 13151014). Growth media was immediately added to the detached cells, then centrifuged at 300×g for 5 minutes at room temperature to pellet the cells. The cells were then resuspended in cold CHO buffer consisting of phosphate buffered saline (PBS), pH 7.4 containing bovine serum albumin (BSA; Sigma-Aldrich, A³⁰⁵⁹) at final concentration of 1%, calcium chloride at final concentration of 1 mM, and sodium azide at a final concentration of 0.1%.
Binding studies with CHO cells were performed in duplicate using two rows of a 96-well round bottom plate, whereas, binding studies with primary endothelial cells were performed in a single row of a 96-well V-bottom plate. The plates were centrifuged at 300×g for 2 minutes at 4° C. and the cells were resuspended and blocked by incubation in the CHO buffer for 10 minutes on wet ice. After incubation, the cells were centrifuged at 300×g for 2 minutes at 4° C. to remove the buffer. […] After incubation with the antibody, the cells were washed three times by centrifugation at 300×g for 1 minute at 4° C. and resuspended in cold CHO buffer. The washed cells were resuspended and incubated with 100 μL of 1:1000 dilution of AlexaFluor647-conjugated goat anti-human F(ab′)₂ Fragment (Fcγ fragment specific antibody, [Jackson Innnnunoresearch, 109-606-170] for 45 minutes (CHO cells) or 30 minutes (endothelial cells) on wet ice. The cells were washed three or four times prior to resuspension in CHO buffer for flow cytometric analysis. A Becton Dickinson LSRFortessa instrument using 640 nanometer laser line was used to acquire cell fluorescence data. Geometric mean fluorescence of cells was analyzed by FlowJo software package (FlowJo, LLC) and plotted against antibody concentration. The estimated EC₅₀ values were calculated using nonlinear regression analysis in the Prism suite (GraphPad, version 8).

[2] = molecular target: T2, soluble recombinant human P-selectin; assay: direct binding ELISA on immobilized human P-selectin, absorbance at 450 nm
Method: Recombinant histidine tagged human P-, E- or L-selectin (Sino Biologicals), mouse E-selectin (Sino Biologicals), rat E-selectin (Sino Biologicals) and Cynomolgus monkey E-selectin (Sino Biologicals) stock solutions were prepared to a final concentration of 1 μg/mL in phosphate buffered saline without calcium and magnesium. Controls included an L-selectin directed antibody (BioLegend; 304811) or P-selectin directed antibody or a negative control IgG. One hundred μL per well of the diluted recombinant selectin proteins were added into a Ni-NTA HisSorb 96 well plate (Qiagen; 35061). Plates were incubated on an orbital shaker at room temperature for 2 hours. Following the incubation, the plates were washed 3 times with 200 μL of wash buffer (50 mM TRIS [trisaminomethane]; 150 mM sodium chloride; 0.05% polysorbate 20, pH 7.4). To decrease nonspecific binding, plates were treated with 200 μL of blocking buffer (BD Opteia buffer; 555213; BD Biosciences), incubated on an orbital shaker for 1 hour at room temperature and washed as described above. […] One hundred μL specific detection antibodies (described below) were added and incubated for 1 hour: [0556] […] Anti L-selectin and anti-rat-E-selectin antibodies were detected using 1 to 25000 dilution of Peroxidase-conjugated AffiniPure Goat Anti-Mouse IgG (H+L); (Jackson ImnnunoResearch Lab).
Plates were washed and 100 μL per well of 1-Step Ultra TMB substrate (Thermo Scientific) was added and incubated for 5 minutes at room temperature. Reactions were stopped with 100 μL of 2 M sulfuric acid and absorbance read at 450 nm (Spectramax M5e).

[3] = molecular target: T1, human E-selectin, cell-surface expressed; assay: cell-based or functional assay

Binder	EC50 [1] [nM]	binding result [2]	static neutralization of HL-60 cell adhesion, CHO-human E-selectin cells-IC50 [3] [nM]
humanized anti-E-selectin antibody 0841 (antibody, human IgG1, kappa, V domains shown, effector-null human IgG1, kappa) VH: EVQLVESGGGLVQPGGSLRLSCAASGYNIRSSYMHWVRQAPGKGLEWVARIDPANGNTIYAEKFKIRFTISADNAKNSAYLQMNSLRAEDTAVYYCAMDLYSTSEYWGQGTLVTVSS VL: DIQMTQSPSSLSASVGDRVTITCKTSQNINRYLNWYQQKPGKAPKLLIYNANSLQTGVPSRFSGSGSGTDFTLTISSLQPEDFATYFCLQDNSWPLTFGQGTKVEIKR	0.71	no binding (tested: 10 ug/ml)	–
optimized anti-E-selectin antibody 1282 (antibody, human IgG1, kappa, V domains shown, effector-null human IgG1, kappa) VH: EVQLVESGGGLVQPGGSLRLSCAASGYAIRSAYMHWVRQAPGKGLEWVARIDPANGNTIYVDSVEGRFTISADNAKNSAYLQMNSLRAEDTAVYYCAMDLYSTSEYWGQGTLVTVSS VL: DIQMTQSPSSLSASVGDRVTITCKTSQNIERYLNWYQQKPGKAPKLLIYAASSLQSGVPSRFSGSGSGTDFTLTISSLQPEDFATYFCLQDNAWPLTFGQGTKVEIKR	0.85	no binding (tested: 10 ug/ml)	3.4
optimized anti-E-selectin antibody 1448 (antibody, human IgG1, kappa, V domains shown, effector-null human IgG1, kappa) VH: EVQLVESGGGLVQPGGSLRLSCAASGYAIRSAYMHWVRQAPGKGLEWVARIDPANGNTIYVDSVKERFTISADNAKNSAYLQMNSLRAEDTAVYYCAMDLYSTSEYWGQGTLVTVSS VL: DIQMTQSPSSLSASVGDRVTITCKTSQNIERYLNWYQQKPGKAPKLLIYAASSLQSGVPSRFSGSGSGTDFTLTISSLQPEDFATYFCLQDNAWPLTFGQGTKVEIKR	0.75	no binding (tested: 10 ug/ml)	6.2
optimized anti-E-selectin antibody 1444 (antibody, human IgG1, kappa, V domains shown, effector-null human IgG1, kappa) VH: EVQLVESGGGLVQPGGSLRLSCAASGYAIRSAYMHWVRQAPGKGLEWVARIDPANGNTIYVDSVTGRFTISADNAKNSAYLQMNSLRAEDTAVYYCAMDLYSTSEYWGQGTLVTVSS VL: DIQMTQSPSSLSASVGDRVTITCKTSQNIERYLNWYQQKPGKAPKLLIYAASSLQSGVPSRFSGSGSGTDFTLTISSLQPEDFATYFCLQDNAWPLTFGQGTKVEIKR	0.66	no binding (tested: 10 ug/ml)	4.7

More lines, now with the values ahead:

EC50 [1] [nM]	binding result [2]	static neutralization of HL-60 cell adhesion, CHO-human E-selectin cells-IC50 [3] [nM]	Binder
–	–	4.4	anti-E-selectin antibody 0164 chimera (antibody, human IgG1, kappa, V domains shown, rat VH/VL on effector-null human IgG1 and human kappa) VH: EVQLQQSGAEFGKPGTSVKLSCKVSGYNIRSSYMHWVNQRPGKGLEWIGRIDPANGNTIYAEKFKIKAILTADSSSNTAYMQLSQLKSDDTAIYFCAMDLYSTSEYWGQGVMVTVSS VL: DIQMTQSPSFLSASVGDRVTINCKTSQNINRYLNWYQQKLGEAPKLLIYNANSLQTGIPSRFSASGSGTDFTLTINSLQPEDVATYFCLQDNSWPLTFGSGTKLEIKR
0.64	no binding (tested: 10 ug/ml)	4.4	optimized anti-E-selectin antibody 1284 (antibody, human IgG1, kappa, V domains shown, effector-null human IgG1, kappa) VH: EVQLVESGGGLVQPGGSLRLSCAASGYAIRSAYMHWVRQAPGKGLEWVARIDPANGNTIYVESVEGRFTISADNAKNSAYLQMNSLRAEDTAVYYCAMDLYSTSEYWGQGTLVTVSS VL: DIQMTQSPSSLSASVGDRVTITCKTSQNIERYLNWYQQKPGKAPKLLIYAASSLQSGVPSRFSGSGSGTDFTLTISSLQPEDFATYFCLQDNAWPLTFGQGTKVEIKR
